Data taken from publication PMC4674680, “An in cellulo-derived structure of PAK4 in complex with its inhibitor Inka1” (Nature Communications, 2015).

Tests used:
[1] = biological target: T1, 6His–PAK4cat (PAK4 286–591) (human, UniProt O96013 286-591); experiment: kinase inhibition assay; 50 nM purified PAK4cat, 10 μM GST-Raf1S338 peptide, 10 μM ATP (γ32P), 25 mM HEPES pH 7.3, 50 mM KCl, 10 mM MgCl2, 30 °C, 20 min; inhibitor pre-incubated with the kinase on ice 10 min; values from the intercepts of the inhibition graphs; settings: both partners purified
T1 construct: human PAK4 catalytic domain, residues 286–591, in pSY5 (His tagged); Residues 297–589 are seen in PDB 4XBU; also called purified PAK4; source: E. coli BL21-CodonPlus(DE3), purified (Ni-NTA; semi-automated Akta system for crystallization)
T1 sequence (O96013 286-591): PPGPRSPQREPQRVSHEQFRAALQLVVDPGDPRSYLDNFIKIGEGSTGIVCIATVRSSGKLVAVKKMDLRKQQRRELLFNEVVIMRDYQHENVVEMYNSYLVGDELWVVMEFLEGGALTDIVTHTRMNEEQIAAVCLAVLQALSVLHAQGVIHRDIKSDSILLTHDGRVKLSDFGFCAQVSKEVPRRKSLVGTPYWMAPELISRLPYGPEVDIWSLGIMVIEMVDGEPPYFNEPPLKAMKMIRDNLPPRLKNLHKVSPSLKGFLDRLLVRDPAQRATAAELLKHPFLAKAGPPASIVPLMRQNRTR

[2] = biological target: T1, 6His–PAK4cat (PAK4 286–591); experiment: crystal structure; in-vitro crystals, hanging drop, 6His–PAK4cat 5 mg/ml with 15-fold molar excess of peptide and two times molar excess of ATP, 0.1 M Tris–HCl pH 8.5, 12% PEG 8000, 25 °C, space group P4_(1)2_(1)2; settings: both partners purified

B1: GST-iBox (Inka1 166–203) (domain or fragment)
chain: EAEDWTAALLNRGRSRQPLVLGDNCFADLVHNWMELPE
modifications: GST carrier left out. Limits 166-203 are the paper's, taken from the 4XBR fusion: Flag/SGS 1-12, iBox 13-50, EF linker 51-52, PAK4 278-591 from 53 (12+38+2+314=366). Entity position = paper number …
[1]
  Ki: 0.03 µM

B2: iBox 23mer synthetic peptide (peptide)
peptide: AEDWTAALLNRGRSRQPLVLGDW
notes: synthetic peptide of the amino-terminal part of the human Inka1 iBox (iBox is 166–203); residues 178–189 are seen in the structure; also called iBox24; synthetic iBox 24mer peptide; source: synthetic peptide
[2]
  binding result: binds
